This passage reports relative amount of NVL2 bound to the resin results from publication PMC5415421.

The assay deals with WDR74 isoform II, C-terminal GFP (human). Put plainly: co-IP.

B1: Full-length mouse NVL2 (1–855), N-terminal One-Strep-Flag tag (enzyme)
chain: MKPRPGVFVDRKLKQRVIQYLSSNRCGKYVDTGILASDLQRLYSVDYGRRKRNAFRIQVEKVFSIISSEKELKNLKELEDGHLAKRARQDEEDEYTESYSDDDSNMEDYPDPQSANPMNSSLLSLYRRGNSESVSTTPKWGQREATTSTPLLTSKTGSVPLKTPARESEGGWFIDKTPGGKKESLPLDLSDDQSNSKKQDSEIQILKDSSLLESDKKRKGRAKGKGNKRKTENLQEVDGEIEALLQKKAKARSTELQISNVKFEDVGGNDATLKEVCKMLIHMRHPEVYQHLGVVPPRGVLLHGPPGCGKTLLAHAIAGELDLPILKVAAPEIVSGVSGESEQKLRELFDQAVSNAPCIVFIDEIDAITPKREVASKDMERRIVAQLLTCMDDLNNVAATARVLVIGATNRPDSLDPALRRAGRFDREVCLGIPDEAARERILQTLCRKLRLPETFNFCHLAHLTPGFVGADLMALCREAAMCAVNRVLMKQQAQQKKKPEIEGLPSEGDQEERLGAEPTSETQDELQRLLGLLRDQDPLSEEQMQGLCIELNDFIVALAEVQPSAKREGFVTVPNVTWADIGALEDIRDELIMAILAPVRNPDQFRTLGLGTPAGILLAGPPGCGKTLLAKAVANESGLNFISVKGPELLNMYVGESERAVRQVFQRAKNSAPCVIFFDEVDALCPRRSDRETGASVRVVNQLLTEMDGLETRQQVFILAATNRPDIIDPAILRPGRLDKTLFVGLPPPADRVAILKTITKNGTKPPLDEDVNLETIANDLRCNCYTGADLTALVREASLCALRQEITAQKNGVGAGELKVSHKHFEDAFKKVKPSISIKDQVMYEALQRSLSQ
For the molecule B1, the relative amount of NVL2 bound to the resin was 9.2%.
